# Source: article PMC6781449 (The Journal of Cell Biology, 2019)
# T1: GST-leupaxin FL (mouse, UniProt Q99N69 1-386)
# T1 sequence (looked up): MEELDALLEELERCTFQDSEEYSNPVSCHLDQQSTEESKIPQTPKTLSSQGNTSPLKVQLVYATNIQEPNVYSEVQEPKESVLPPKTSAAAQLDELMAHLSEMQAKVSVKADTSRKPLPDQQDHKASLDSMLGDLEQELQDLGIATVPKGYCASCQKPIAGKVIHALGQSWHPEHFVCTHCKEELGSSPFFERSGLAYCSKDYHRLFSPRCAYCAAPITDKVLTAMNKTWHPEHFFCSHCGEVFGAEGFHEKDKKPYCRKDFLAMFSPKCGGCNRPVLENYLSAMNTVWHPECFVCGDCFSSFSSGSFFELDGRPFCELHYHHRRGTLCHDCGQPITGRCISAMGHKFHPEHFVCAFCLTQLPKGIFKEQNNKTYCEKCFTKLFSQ
# Target: T1, GST-leupaxin FL
# Experiment: pull-down
binder,measurement,value
"HisSUMO-tagged kindlin-3 F0 domain (domain or fragment, UniProt Q8K1B8 1-97, looked up) MAGMKTASGDYIDSSWELRVFVGEEDPEAQSVTLRVTGESHIGGVLLKIVEEINRKQDWSDHAIWWEQKRQWLLQTHWTLDKYGILADARLFFGPQH",binding result,binds
